Experimental data from PMC9507012 (Blood, 2022).
“And” between values parts separate entries of the source, which are not always exact repeats. Equal entries are not always repeated.

Target: the molecule itself
Assay: crystal structure

B1: MEF2D_(2-95) (N-terminal residues 2-95 of human MEF2D) (domain or fragment, UniProt Q14814 2-95, looked up)
chain: GRKKIQIQRITDERNRQVTFTKRKFGLMKKAYELSVLCDCEIALIIFNHSNKLFQYASTDMDKVLLKYTEYNEPHESRTNADIIETLRKKGFNG
  stoichiometry N: 2 and 4
